# Laboratory results from article doi:10.1101/2022.04.11.487882.
# Biological target: receptor-binding domain (RBD) of the SARS-CoV-2 spike (S) protein S1 region, His-tagged (SARS-CoV-2) (UniProt P0DTC2)
# Assay: SPR
Substance,Kd,koff,kon
recombinant human integrin αvβ3 (from UniProt P06756 31-1048; P05106 27-718) (complex),> 0.5 µM,–,–
recombinant human integrin αvβ6 (from UniProt P06756 31-1048; P18564 22-709) (complex),0.23 µM,0.0236 s⁻¹,84000 M⁻¹ s⁻¹
